Data from patent CN117886935A (BEIJING KENUO XINCHENG TECH CO LTD, dated 2024).

What was measured:
[1] = biological target: T1, 人CSF-1R-his重组蛋白 (human CSF-1R-his recombinant protein) (human, UniProt P07333 20-512, limits assumed); experiment: BLI (ForteBio)
T1 construct: Analyte of the ForteBio assay, 60 nM; also called CD115; M-CSF-R; not shown: His tag

[2] = biological target: T1, 人CSF-1R-his重组蛋白 (human CSF-1R-his …); experiment: BLI (ForteBio), antibody on AHC probe, CSF-1R-his 60 nM, 1:1 fit
[3] = biological target: T2, CSF-1R-mFc (human, UniProt P07333 20-512, limits assumed); experiment: competition ELISA: CSF1-His coated, CSF-1R-mFc 0.15 μg/ml premixed with antibody
T2 construct: not shown: mouse Fc (mFc)

[4] = biological target: T2, CSF-1R-mFc; experiment: competition ELISA: human IL-34 coated, CSF-1R-mFc 0.15 μg/ml premixed with antibody
[5] = biological target: CSF-1R on CSF-1R/SRE-Luc/HEK293 reporter cells (UniProt P07333 20-972, limits assumed); experiment: cell-based or functional assay
[6] = biological target: T3, CSF-1R on rhCSF-1R-CHO cells (human, UniProt P07333 20-972); experiment: flow cytometry on rhCSF-1R-CHO cells, FITC goat anti-human
T3 construct: whole, on cells; also called 细胞表面CSF-1R; CSF-1R-CHO细胞
T3 sequence (P07333 20-972): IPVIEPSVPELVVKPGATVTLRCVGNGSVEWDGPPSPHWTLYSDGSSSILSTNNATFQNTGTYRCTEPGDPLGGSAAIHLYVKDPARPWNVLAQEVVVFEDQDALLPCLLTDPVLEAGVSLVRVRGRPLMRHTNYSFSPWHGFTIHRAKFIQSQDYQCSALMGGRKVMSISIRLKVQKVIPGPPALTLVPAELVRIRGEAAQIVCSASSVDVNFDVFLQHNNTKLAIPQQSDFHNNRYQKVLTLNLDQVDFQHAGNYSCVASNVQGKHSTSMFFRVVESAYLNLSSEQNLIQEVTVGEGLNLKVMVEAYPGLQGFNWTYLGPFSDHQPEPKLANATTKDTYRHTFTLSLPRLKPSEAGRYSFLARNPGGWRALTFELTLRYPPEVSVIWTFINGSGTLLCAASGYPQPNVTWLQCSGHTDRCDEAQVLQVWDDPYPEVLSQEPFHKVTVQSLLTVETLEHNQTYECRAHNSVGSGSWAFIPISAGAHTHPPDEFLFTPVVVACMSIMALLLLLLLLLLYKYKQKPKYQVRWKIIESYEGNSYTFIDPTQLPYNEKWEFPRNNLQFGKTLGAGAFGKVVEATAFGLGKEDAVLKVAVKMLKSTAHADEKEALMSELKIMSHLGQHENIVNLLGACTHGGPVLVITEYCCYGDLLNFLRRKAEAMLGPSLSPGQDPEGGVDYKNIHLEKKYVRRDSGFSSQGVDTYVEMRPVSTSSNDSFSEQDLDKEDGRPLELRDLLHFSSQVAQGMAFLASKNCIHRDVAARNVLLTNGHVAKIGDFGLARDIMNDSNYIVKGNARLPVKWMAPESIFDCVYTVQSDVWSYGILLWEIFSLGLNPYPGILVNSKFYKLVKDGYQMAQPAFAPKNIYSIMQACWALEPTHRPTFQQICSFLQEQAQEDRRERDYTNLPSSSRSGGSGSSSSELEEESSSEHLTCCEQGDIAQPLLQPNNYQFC

T2 sequence (P07333 20-512 limits assumed): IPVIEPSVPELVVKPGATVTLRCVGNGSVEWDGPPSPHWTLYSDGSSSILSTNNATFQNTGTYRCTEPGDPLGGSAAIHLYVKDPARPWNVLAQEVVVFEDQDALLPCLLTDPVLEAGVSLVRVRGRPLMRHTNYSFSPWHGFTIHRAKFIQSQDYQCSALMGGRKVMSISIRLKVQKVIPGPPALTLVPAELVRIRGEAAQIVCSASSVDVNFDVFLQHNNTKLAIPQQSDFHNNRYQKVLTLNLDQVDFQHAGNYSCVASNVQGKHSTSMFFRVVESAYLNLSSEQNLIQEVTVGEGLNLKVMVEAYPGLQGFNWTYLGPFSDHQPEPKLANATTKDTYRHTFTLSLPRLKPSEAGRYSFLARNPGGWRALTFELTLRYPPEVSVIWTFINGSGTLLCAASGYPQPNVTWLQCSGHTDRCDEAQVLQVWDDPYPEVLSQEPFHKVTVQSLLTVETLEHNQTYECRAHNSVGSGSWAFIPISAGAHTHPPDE
T1 sequence (P07333 20-512 limits assumed): as above
CSF-1R on CSF-1R/SRE-Luc/HEK293 reporter cells, sequence (P07333 20-972 limits assumed): as the sequence (P07333 20-972) above

Row | Binder | Kd [1] | koff [1] | kon [1] | further results
1 | ch73 (antibody, human IgG1, kappa, V domains shown, also called 嵌合抗体ch73; 73号) VH: EVQLQQFGAELVKPGASVKISCKASGYTFTDYNMDWMKQSHGKSLEWIGDIIPNYDSATYNQKFKGKATLTVDRSSSTAYMELRSLSSEDTAVYYCARKGGGYVNWYFDVWGAGTTVTVSS VL: DIQMNQSPSSLSASLGDTITITCHASQNINVWLSWYQQKPGNIPKLLIYKASNLHTGVPSRFSGSGSGTGFTLTISSLQPEDIATYYCQQGESYPYTFGGGTKLEIKR | 0.03 nM | 6.54e-06 s⁻¹ | 218000 M⁻¹ s⁻¹ | Kd [2]: 0.03 nM; koff [2]: 6.54e-06 s⁻¹; kon [2]: 218000 M⁻¹ s⁻¹; IC50 [3]: 0.323 nM; IC50 [4]: ~0.71 nM
2 | hz73 (antibody, V domains shown, also called 人源化抗体hz73) VH: EVQLVQSGAEVKKPGASVKVSCKASGYTFTDYNMDWVRQAPGQGLEWMGDIIPNYDSATYNQKFKGRVTMTRDTSTSTVYMELSSLRSEDTAVYYCARKGGGYVNWYFDVWGQGTTVTVSS VL: DIQMTQSPSSLSASVGDRVTITCHASQNINVWLSWYQQKPGKAPKLLIYKASNLHTGVPSRFSGSGSGTDFTFTISSLQPEDIATYYCQQGESYPYTFGGGTKVEIK | 0.0605 nM | 1.3e-05 s⁻¹ | 215000 M⁻¹ s⁻¹ | IC50, inhibition of CSF-1-stimulated (7.2 ng/ml) SRE-Luc reporter in CSF-1R/SRE-Luc/HEK293 cells [5]: 0.31 µg/mL; IC50, inhibition of IL-34-stimulated (85.06 ng/ml) SRE-Luc reporter in CSF-1R/SRE-Luc/HEK293 cells [5]: 0.8 µg/mL; EC50 [6]: 0.196 µg/mL; IC50 [3]: 0.339 nM; IC50 [4]: 0.393 nM
3 | Lm3H (antibody, V domains shown) VH: EVQLVQSGAEVKKPGASVKVSCKASGYTFTDYNMDWVRQAPGQGLEWMGDIIPNYDSATYNQKFKGRVTMTRDTSTSTVYMELSSLRSEDTAVYYCARKGGGYVNWYFDVWGQGTTVTVSS VL: DIQMTQSPSSLSASVGDRVTITCHASQNINVWLNWYQQKPGKAPKLLIYKASNLHTGVPSRFSGSGSGTDFTFTISSLQPEDIATYYCQQGESYPYTFGGGTKVEIK | 0.0935 nM | 1.45e-05 s⁻¹ | 155000 M⁻¹ s⁻¹ | EC50 [6]: 0.253 µg/mL
4 | Lm7H (antibody, V domains shown) VH: EVQLVQSGAEVKKPGASVKVSCKASGYTFTDYNMDWVRQAPGQGLEWMGDIIPNYDSATYNQKFKGRVTMTRDTSTSTVYMELSSLRSEDTAVYYCARKGGGYVNWYFDVWGQGTTVTVSS VL: DIQMTQSPSSLSASVGDRVTITCRASQNINVWLSWYQQKPGKAPKLLIYDASNLETGVPSRFSGSGSGTDFTFTISSLQPEDIATYYCQQGESYPYTFGGGTKVEIK | 0.0634 nM | 1.3e-05 s⁻¹ | 205000 M⁻¹ s⁻¹ | EC50 [6]: 0.201 µg/mL
5 | Hm2L (antibody, V domains shown) VH: EVQLVQSGAEVKKPGASVKVSCKASGYTFTSYNMDWVRQAPGQGLEWMGDIIPNYDSATYNQKFKGRVTMTRDTSTSTVYMELSSLRSEDTAVYYCARKGGGYVNWYFDVWGQGTTVTVSS VL: DIQMTQSPSSLSASVGDRVTITCHASQNINVWLSWYQQKPGKAPKLLIYKASNLHTGVPSRFSGSGSGTDFTFTISSLQPEDIATYYCQQGESYPYTFGGGTKVEIK | 0.0963 nM | 2.9e-05 s⁻¹ | 301000 M⁻¹ s⁻¹ | 
6 | Lm2H (antibody, V domains shown) VH: EVQLVQSGAEVKKPGASVKVSCKASGYTFTDYNMDWVRQAPGQGLEWMGDIIPNYDSATYNQKFKGRVTMTRDTSTSTVYMELSSLRSEDTAVYYCARKGGGYVNWYFDVWGQGTTVTVSS VL: DIQMTQSPSSLSASVGDRVTITCHASQNINVYLSWYQQKPGKAPKLLIYKASNLHTGVPSRFSGSGSGTDFTFTISSLQPEDIATYYCQQGESYPYTFGGGTKVEIK | 0.109 nM | 1.14e-05 s⁻¹ | 105000 M⁻¹ s⁻¹ | 
7 | Hm6L (antibody, V domains shown) VH: EVQLVQSGAEVKKPGASVKVSCKASGYTFTDYNMDWVRQAPGQGLEWMGDIIPNYDSATYAQKFKGRVTMTRDTSTSTVYMELSSLRSEDTAVYYCARKGGGYVNWYFDVWGQGTTVTVSS VL: DIQMTQSPSSLSASVGDRVTITCHASQNINVWLSWYQQKPGKAPKLLIYKASNLHTGVPSRFSGSGSGTDFTFTISSLQPEDIATYYCQQGESYPYTFGGGTKVEIK | 0.0785 nM | 1.53e-05 s⁻¹ | 195000 M⁻¹ s⁻¹ | EC50 [6]: 0.199 µg/mL
8 | Hm5L (antibody, V domains shown) VH: EVQLVQSGAEVKKPGASVKVSCKASGYTFTDYNMDWVRQAPGQGLEWMGDIIPNYESATYNQKFKGRVTMTRDTSTSTVYMELSSLRSEDTAVYYCARKGGGYVNWYFDVWGQGTTVTVSS VL: DIQMTQSPSSLSASVGDRVTITCHASQNINVWLSWYQQKPGKAPKLLIYKASNLHTGVPSRFSGSGSGTDFTFTISSLQPEDIATYYCQQGESYPYTFGGGTKVEIK | 0.0794 nM | 2.55e-05 s⁻¹ | 321000 M⁻¹ s⁻¹ | 
9 | Lm6H (antibody, V domains shown) VH: EVQLVQSGAEVKKPGASVKVSCKASGYTFTDYNMDWVRQAPGQGLEWMGDIIPNYDSATYNQKFKGRVTMTRDTSTSTVYMELSSLRSEDTAVYYCARKGGGYVNWYFDVWGQGTTVTVSS VL: DIQMTQSPSSLSASVGDRVTITCHASQNINVWLSWYQQKPGKAPKLLIYKASNLETGVPSRFSGSGSGTDFTFTISSLQPEDIATYYCQQGESYPYTFGGGTKVEIK | 0.188 nM | 1.9e-05 s⁻¹ | 101000 M⁻¹ s⁻¹ | 
10 | Lm5H (antibody, V domains shown) VH: EVQLVQSGAEVKKPGASVKVSCKASGYTFTDYNMDWVRQAPGQGLEWMGDIIPNYDSATYNQKFKGRVTMTRDTSTSTVYMELSSLRSEDTAVYYCARKGGGYVNWYFDVWGQGTTVTVSS VL: DIQMTQSPSSLSASVGDRVTITCHASQNINVWLSWYQQKPGKAPKLLIYDASNLHTGVPSRFSGSGSGTDFTFTISSLQPEDIATYYCQQGESYPYTFGGGTKVEIK | 0.105 nM | 2.1e-05 s⁻¹ | 200000 M⁻¹ s⁻¹ | 
11 | Lm7Hm7 (antibody, V domains shown) VH: EVQLVQSGAEVKKPGASVKVSCKASGYTFTSYNMHWVRQAPGQGLEWMGDIIPNYESATYAQKFKGRVTMTRDTSTSTVYMELSSLRSEDTAVYYCARKGGGYVNWYFDVWGQGTTVTVSS VL: DIQMTQSPSSLSASVGDRVTITCRASQNINVWLSWYQQKPGKAPKLLIYDASNLETGVPSRFSGSGSGTDFTFTISSLQPEDIATYYCQQGESYPYTFGGGTKVEIK | 0.107 nM | 1.23e-05 s⁻¹ | 115000 M⁻¹ s⁻¹ | 
12 | Lm4Hm7 (antibody, V domains shown) VH: EVQLVQSGAEVKKPGASVKVSCKASGYTFTSYNMHWVRQAPGQGLEWMGDIIPNYESATYAQKFKGRVTMTRDTSTSTVYMELSSLRSEDTAVYYCARKGGGYVNWYFDVWGQGTTVTVSS VL: DIQMTQSPSSLSASVGDRVTITCHASQNINVYLNWYQQKPGKAPKLLIYKASNLHTGVPSRFSGSGSGTDFTFTISSLQPEDIATYYCQQGESYPYTFGGGTKVEIK | 0.138 nM | 2.02e-05 s⁻¹ | 146000 M⁻¹ s⁻¹ | 
13 | Lm4H (antibody, V domains shown) VH: EVQLVQSGAEVKKPGASVKVSCKASGYTFTDYNMDWVRQAPGQGLEWMGDIIPNYDSATYNQKFKGRVTMTRDTSTSTVYMELSSLRSEDTAVYYCARKGGGYVNWYFDVWGQGTTVTVSS VL: DIQMTQSPSSLSASVGDRVTITCHASQNINVYLNWYQQKPGKAPKLLIYKASNLHTGVPSRFSGSGSGTDFTFTISSLQPEDIATYYCQQGESYPYTFGGGTKVEIK | 0.189 nM | 1.93e-05 s⁻¹ | 102000 M⁻¹ s⁻¹ | 
14 | Hm1L (antibody, V domains shown) VH: EVQLVQSGAEVKKPGASVKVSCKASGYTFTEYNMDWVRQAPGQGLEWMGDIIPNYDSATYNQKFKGRVTMTRDTSTSTVYMELSSLRSEDTAVYYCARKGGGYVNWYFDVWGQGTTVTVSS VL: DIQMTQSPSSLSASVGDRVTITCHASQNINVWLSWYQQKPGKAPKLLIYKASNLHTGVPSRFSGSGSGTDFTFTISSLQPEDIATYYCQQGESYPYTFGGGTKVEIK | 0.0853 nM | 2.2e-05 s⁻¹ | 258000 M⁻¹ s⁻¹ | 
15 | Lm1H (antibody, V domains shown) VH: EVQLVQSGAEVKKPGASVKVSCKASGYTFTDYNMDWVRQAPGQGLEWMGDIIPNYDSATYNQKFKGRVTMTRDTSTSTVYMELSSLRSEDTAVYYCARKGGGYVNWYFDVWGQGTTVTVSS VL: DIQMTQSPSSLSASVGDRVTITCRASQNINVWLSWYQQKPGKAPKLLIYKASNLHTGVPSRFSGSGSGTDFTFTISSLQPEDIATYYCQQGESYPYTFGGGTKVEIK | 0.0683 nM | 1.4e-05 s⁻¹ | 205000 M⁻¹ s⁻¹ | 
16 | Hm4L (antibody, V domains shown) VH: EVQLVQSGAEVKKPGASVKVSCKASGYTFTDYNMDWVRQAPGQGLEWMGGIIPNYDSATYNQKFKGRVTMTRDTSTSTVYMELSSLRSEDTAVYYCARKGGGYVNWYFDVWGQGTTVTVSS VL: DIQMTQSPSSLSASVGDRVTITCHASQNINVWLSWYQQKPGKAPKLLIYKASNLHTGVPSRFSGSGSGTDFTFTISSLQPEDIATYYCQQGESYPYTFGGGTKVEIK | 0.125 nM | 1.4e-05 s⁻¹ | 112000 M⁻¹ s⁻¹ | 
17 | Hm3L (antibody, V domains shown) VH: EVQLVQSGAEVKKPGASVKVSCKASGYTFTDYNMHWVRQAPGQGLEWMGDIIPNYDSATYNQKFKGRVTMTRDTSTSTVYMELSSLRSEDTAVYYCARKGGGYVNWYFDVWGQGTTVTVSS VL: DIQMTQSPSSLSASVGDRVTITCHASQNINVWLSWYQQKPGKAPKLLIYKASNLHTGVPSRFSGSGSGTDFTFTISSLQPEDIATYYCQQGESYPYTFGGGTKVEIK | 0.082 nM | 2.1e-05 s⁻¹ | 256000 M⁻¹ s⁻¹ | 
